Assay [1] addresses T1, EGFR on the surface of human tumour cells (A431, H292) (human, UniProt P00533 25-1210). As to the kind of experiment: cell-based or functional assay.
Assay [2] has as its target IGF-IR on human tumour cells (H292, MCF-7, RH41) (human, UniProt P08069 31-1367). Description: cell-based or functional assay.
Assay [3] has as its target T2, Recombinant human EGFR-Fc (aa 1-645 of the extracellular domain of human EGFR fused to human Fc) (human, UniProt P00533 25-645).
T2 construct: range 1-645; bought from R&D Systems; also called EGFR645-Fc; EGFR-Fc (HER-1); not shown: human Fc

The target of assay [4] is T1, EGFR on the surface of human tumour …. Description: cell-based or functional assay. This is another data set of the same source.
For assay [5] the target is unchanged.
For assay [6], the target named is T3, IGF1R-Fc (extracellular domain of human IGF1R aa 1-932 fused to hinge and constant regions of human IgG1) (human, UniProt P08069 31-932).
T3 construct: range 1-932; made in house by transient transfection, purified on Protein A; also called IGF-IR-Fc; not shown: hinge and constant regions of human IgG1

B1: E93 (designed binder)
10Fn3 domain: MGVSDVPRDLEVVAATPTSLLISWDSGRGSYQYYRITYGETGGNSPVQEFTVPGGVRTATISGLKPGVDYTITVYAVTDYKPHADGPHTYHEYPISINYRTEIDKPSQ
B1: in assay [1], the “% inhibition of EGFR phosphorylation at 100 nM binder, cell-based assay” value (shortened to “% inhibition of EGFR phosphorylation”) amounted to 76.9%.

B2: E94 (designed binder)
10Fn3 domain: MGVSDVPRDLEVVAATPTSLLISWNNGGRNYQYYRITYGETGGNSPVQEFTVPYDVYTATISGLKPGVDYTITVYAVTDYKPHADGPHTYHEYPISINYRTEIDKPSQ
As to B2, the “% inhibition of EGFR phosphorylation” value in assay [1] came out at 78.7%.

B3: E97 (designed binder)
10Fn3 domain: MGVSDVPRDLEVVAATPTSLLISWLPGKLRYQYYRITYGETGGNSPVQEFTVPHDLRTATISGLKPGVDYTITVYAVTDYKPHADGPHTYHESPISINYRTEIDKPSQ
Regarding B3, in assay [1], the “% inhibition of EGFR phosphorylation” value amounted to 89.3%.

B4: E98 (designed binder)
10Fn3 domain: MGVSDVPRDLEVVAATPTSLLISWDAPTSRYQYYRITYGETGGNSPVQEFTVPGGVRTATISGLKPGVDYTITVYAVTDHKPHADGPHTYHEYPISINYRTEIDKPSQ
For the molecule B4, the “% inhibition of EGFR phosphorylation” value in assay [1] came to 75.8%.

B5: E89 (designed binder)
10Fn3 domain: MGVSDVPRDLEVVAATPTSLLISWDDPAANRQYYRITYGETGGNSPVQEFTVPYDLRTATISGLKPGVDYTITVYAVTDYYNPATHQYKYSQSPISINYRTEIDKPSQ
B5: in assay [1], the “% inhibition of EGFR phosphorylation” value came to 82.6%.

B6: E88 (designed binder)
10Fn3 domain: MGVSDVPRDLEVVAATPTSLLISWSATNKTYQYYRITYGETGGNSPVQEFTVPGGVRTATISGLKPGVDYTITVYAVTDYFNPTTHEYIYQTTPISINYRTEIDKPSQ
Take B6: in assay [1], the “% inhibition of EGFR phosphorylation” value was found to be 89.3%.

B7: E92 (designed binder)
10Fn3 domain: MGVSDVPRDLEVVAATPTSLLISWQAANHSYQYYRITYGETGGNSPVQEFTVPGGVRTATISGLKPGVDYTITVYAVTDFFNPVTHEYKYRTIPISINYRTEIDKPSQ
B7: the “% inhibition of EGFR phosphorylation” value in assay [1] was found to be 88.5%.

B8: E96 (designed binder)
10Fn3 domain: MGVSDVPRDLEVVAATPTSLLISWASNRGTYQYYRITYGETGGNSPVQEFTVPGGVSTATISGLKPGVDYTITVYAVTDAFNPTTHEYNYFTTPISINYRTEIDKPSQ
Turning to B8, the “% inhibition of EGFR phosphorylation” value in assay [1] is 91.7%.

B9: E90 (designed binder)
10Fn3 domain: MGVSDVPRDLEVVAATPTSLLISWYWEGLPYQYYRITYGETGGNSPVQEFTVPRDVNTATISGLKPGVDYTITVYAVTDWYNPDTHEYIYHTIPISINYRTEIDKPSQ
Take B9: in assay [1], the “% inhibition of EGFR phosphorylation” value is 81.3%.

B10: I1-GS10-E112 pegylated (designed binder)
I/E tandem 10Fn3 chain: MGVSDVPRDLEVVAATPTSLLISWSARLKVARYYRITYGETGGNSPVQEFTVPKNVYTATISGLKPGVDYTITVYAVTRFRDYQPISINYRTEIDKGSGSGSGSGSGSGSGSGSGSVSDVPRDLEVVAATPTSLLISWDAGAVTYQYYRITYGETGGNSPVQEFTVPGGVRTATISGLKPGVDYTITVYAVTDYKPHADGPHTYHEYPISINYRTEIDKPCQHHHHHH
modifications: Cys of the C-terminal Cys tail conjugated to 40 kDa branched PEG
In the case of B10, in assay [2], the “IC50, IGF1-stimulated IGFR phosphorylation, H292 cells, ELISA” value came out at 0.3 nM.

B11: E90-GS10-I1 pegylated (designed binder)
E/I tandem 10Fn3 chain: MGVSDVPRDLEVVAATPTSLLISWYWEGLPYQYYRITYGETGGNSPVQEFTVPRDVNTATISGLKPGVDYTITVYAVTDWYNPDTHEYIYHTIPISINYRTEIDKGSGSGSGSGSGSGSGSGSGSVSDVPRDLEVVAATPTSLLISWSARLKVARYYRITYGETGGNSPVQEFTVPKNVYTATISGLKPGVDYTITVYAVTRFRDYQPISINYRTEIDKPCQHHHHHH
modifications: Cys of the C-terminal Cys tail conjugated to 40 kDa branched PEG
With B11, in assay [3], the dissociation constant Kd (in general, a measure of binding affinity in units of concentration) was 13.5 nM. Besides, the “IC50, IGF1-stimulated IGFR phosphorylation, H292 cells, ELISA” value in assay [2] worked out at 0.4 nM. In addition, in assay [4], the “IC50, EGF-induced EGFR phosphorylation, A431 cells, In Cell Western” value (“IC50, EGF-induced EGFR phosphorylation” below) came out at 65 nM; the “IC50, EGF-induced ERK phosphorylation, A431 cells, In Cell Western” value (“IC50, EGF-induced ERK phosphorylation” below) was 63 nM; the “IC50, EGF-stimulated EGFR phosphorylation, H292 cells, ELISA” value came out at 10 nM. For the same molecule, in assay [5], the half-maximal inhibitory concentration (IC50) – broadly, the point on the concentration scale where inhibition reaches its midpoint – amounted to 69.1 nM. In assay [6], this molecule registered a Kd of 1.5 nM.

B12: E85-GS10-I1 pegylated (designed binder)
E/I tandem 10Fn3 chain: MGVSDVPRDLEVVAATPTSLLISWTQGSTHYQYYRITYGETGGNSPVQEFTVPGMVYTATISGLKPGVDYTITVYAVTDYFDRSTHEYKYRTTPISINYRTEIDKGSGSGSGSGSGSGSGSGSGSVSDVPRDLEVVAATPTSLLISWSARLKVARYYRITYGETGGNSPVQEFTVPKNVYTATISGLKPGVDYTITVYAVTRFRDYQPISINYRTEIDKPCQHHHHHH
modifications: Cys of the C-terminal Cys tail conjugated to 40 kDa branched PEG
As to B12, the Kd in assay [3] worked out at 4.76 nM. Besides, the “IC50, IGF1-stimulated IGFR phosphorylation, H292 cells, ELISA” value in assay [2] came to 0.3 nM. In addition, in assay [4], the “IC50, EGF-induced EGFR phosphorylation” value was determined as 15 nM; the “IC50, EGF-induced ERK phosphorylation” value was determined as 15 nM; the “IC50, EGF-stimulated EGFR phosphorylation, H292 cells, ELISA” value worked out at 4 nM. It took 65.9 nM to reach half-maximal inhibition in assay [5] (IC50). The same molecule registered an equilibrium dissociation constant (Kd) in assay [6] of 0.75 nM.

B13: E87 (designed binder)
10Fn3 domain: MGVSDVPRDLEVVAATPTSLLISWGSPLIEYQYYRITYGETGGNSPVQEFTVPGGLSTATISGLKPGVDYTITVYAVTDYFNPATHEYTYHVSPISINYRTEIDKPSQ
Regarding B13, in assay [1], the “% inhibition of EGFR phosphorylation” value stood at 87%.

B14: E95 (designed binder)
10Fn3 domain: MGVSDVPRDLEVVAATPTSLLISWVVPQGMYQYYRITYGETGGNSPVQEFTVPGGVSTATISGLKPGVDYTITVYAVTDYFNPATHEYNYHSIPISINYRTEIDKPSQ
For B14, the “% inhibition of EGFR phosphorylation” value in assay [1] was found to be 98%.

B15: E105-GS10-I1 pegylated (designed binder)
E/I tandem 10Fn3 chain: MGVSDVPRDLEVVAATPTSLLISWDAPTSRYQYYRITYGETGGNSPVQEFTVPGGLSTATISGLKPGVDYTITVYAVTDYKPHADGPHTYHESPISINYRTEIDKGSGSGSGSGSGSGSGSGSGSVSDVPRDLEVVAATPTSLLISWSARLKVARYYRITYGETGGNSPVQEFTVPKNVYTATISGLKPGVDYTITVYAVTRFRDYQPISINYRTEIDKPCQHHHHHH
modifications: Cys of the C-terminal Cys tail conjugated to 40 kDa branched PEG
For the molecule B15, the dissociation constant (Kd) in assay [3] stood at 9.28 nM. For the same molecule, in assay [2], the “IC50, IGF1-stimulated IGFR phosphorylation, H292 cells, ELISA” value came to 0.5 nM. For the same molecule, in assay [4], the “IC50, EGF-induced EGFR phosphorylation” value is 56 nM; the “IC50, EGF-induced ERK phosphorylation” value is 61 nM; the “IC50, EGF-stimulated EGFR phosphorylation, H292 cells, ELISA” value turned out to be 15 nM. The molecule also returned a concentration for half-maximal inhibition (IC50) in assay [5] of 75 nM. The same molecule returned a Kd in assay [6] of 1.35 nM.

B16: E105-GS10-I1 pegylated (designed binder)
chain: MGVSDVPRDLEVVAATPTSLLISWDAPTSRYQYYRITYGETGGNSPVQEFTVPGGLSTATISGLKPGVDYTITVYAVTDYKPHADGPHTYHESPISINYRTEIDKGSGSGSGSGSGSGSGSGSGSVSDVPRDLEVVAATPTSLLISWSARLKVARYYRITYGETGGNSPVQEFTVPKNVYTATISGLKPGVDYTITVYAVTRFRDYQPISINYRTEIDKPCQHHHHHH
modifications: chain 1 pos 221: Cys carrying a maleimide-linked 40 kDa branched PEG, written C
notes: lower row of the two named E105-GS10-I1 pegylated
For the molecule B16, in assay [3], the equilibrium dissociation constant (Kd) worked out at 7.65 nM. In assay [2], the “IC50, IGF1-stimulated IGFR phosphorylation, H292 cells, ELISA” value is 0.5 nM. In assay [4], the “IC50, EGF-induced EGFR phosphorylation” value came out at 61 nM; the “IC50, EGF-induced ERK phosphorylation” value turned out to be 49 nM; the “IC50, EGF-stimulated EGFR phosphorylation, H292 cells, ELISA” value was 16 nM. The 50% inhibitory concentration (IC50) in assay [5] is 93.8 nM. This molecule returned a Kd in assay [6] of 1.19 nM.

B17: E5-GS10-I1 pegylated (designed binder)
E/I tandem 10Fn3 chain: MGVSDVPRDLEVVAATPTSLLISWWAPVDRYQYYRITYGETGGNSPVQEFTVPRDVYTATISGLKPGVDYTITVYAVTDYKPHADGPHTYHESPISINYRTEIDKGSGSGSGSGSGSGSGSGSGSVSDVPRDLEVVAATPTSLLISWSARLKVARYYRITYGETGGNSPVQEFTVPKNVYTATISGLKPGVDYTITVYAVTRFRDYQPISINYRTEIDKPCQHHHHHH
modifications: Cys of the C-terminal Cys tail conjugated to 40 kDa branched PEG
Turning to B17, the “IC50, IGF1-stimulated IGFR phosphorylation, H292 cells, ELISA” value in assay [2] is 0.4 nM. The molecule further displayed a dissociation constant Kd in assay [6] of 1.16 nM.

B18: E96-GS10-I1 pegylated (designed binder)
E/I tandem 10Fn3 chain: MGVSDVPRDLEVVAATPTSLLISWASNRGTYQYYRITYGETGGNSPVQEFTVPGGVSTATISGLKPGVDYTITVYAVTDAFNPTTHEYNYFTTPISINYRTEIDKGSGSGSGSGSGSGSGSGSGSVSDVPRDLEVVAATPTSLLISWSARLKVARYYRITYGETGGNSPVQEFTVPKNVYTATISGLKPGVDYTITVYAVTRFRDYQPISINYRTEIDKPCQHHHHHH
modifications: Cys of the C-terminal Cys tail conjugated to 40 kDa branched PEG
B18: in assay [3], the dissociation constant Kd came out at 24.2 nM. In addition, the “IC50, IGF1-stimulated IGFR phosphorylation, H292 cells, ELISA” value in assay [2] was 0.4 nM. In assay [4], the “IC50, EGF-induced EGFR phosphorylation” value was 61 nM; the “IC50, EGF-induced ERK phosphorylation” value is 54 nM; the “IC50, EGF-stimulated EGFR phosphorylation, H292 cells, ELISA” value amounted to 10 nM. In assay [5], this molecule returned an IC50 of 43.8 nM. Moreover, binding in assay [6] was put at a Kd of 0.96 nM.

B19: E91 (designed binder)
10Fn3 domain: MGVSDVPRDLEVVAATPTSLLISWSAPWRTYQYYRITYGETGGNSPVQEFTVPYDVYTATISGLKPGVDYTITVYAVTDYLNPNTLEYTYQRIPISINYRTEIDKPSQ
Consider B19, for which the “% inhibition of EGFR phosphorylation” value in assay [1] is 84.7%.

Source of the values: patent US20180037631A1 (Bristol-Myers Squibb, published 2018).
